These substances were tested against CCR5 (UniProt P51681) (assay: cell-based or functional assay).
Sequence of wild-type RANTES (P13501 24-91): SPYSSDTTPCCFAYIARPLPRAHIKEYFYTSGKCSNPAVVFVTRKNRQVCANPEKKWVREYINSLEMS
For “RANTES mutant pVU5 (Ser 1 to Cys) (from UniProt P13501 24-91) (ligand)”, the relative antiviral activity (ID90 RANTES/ID90 mutant), MDM, HIV-1BaL (fold compared to wild-type RANTES) was 0.25, the relative antiviral activity (ID90 RANTES/ID90 mutant), PBMC, HIV-1 6366 (fold compared to wild-type RANTES) was 0.23 and the relative antiviral activity (ID90 RANTES/ID90 mutant), PBMC, HIV-1BaL (fold compared to wild-type RANTES) was 0.24. “RANTES mutant pVU14 (Tyr 3 to Ala) (from UniProt P13501 24-91) (ligand)” showed a relative antiviral activity (ID90 RANTES/ID90 mutant), MDM, HIV-1BaL (fold compared to wild-type RANTES) of 0.23, a relative antiviral activity (ID90 RANTES/ID90 mutant), PBMC, HIV-1 6366 (fold compared to wild-type RANTES) of 0.1 and a relative antiviral activity (ID90 RANTES/ID90 mutant), PBMC, HIV-1BaL (fold compared to wild-type RANTES) of 0.22. With “RANTES mutant pVU15 (Ser 1 to Cys, Ser 5 to Cys) (from UniProt P13501 24-91) (ligand)” the concentration giving the highest inhibition of wild-type RANTES activity (calcium mobilisation) was 500 ng/mL, the relative antiviral activity (ID90 RANTES/ID90 mutant), MDM, HIV-1BaL (fold compared to wild-type RANTES) was 4.5 and the relative antiviral activity (ID90 RANTES/ID90 mutant), PBMC, HIV-1 6366 (fold compared to wild-type RANTES) was 3.3. The relative antiviral activity (ID90 RANTES/ID90 mutant), PBMC, HIV-1BaL (fold compared to wild-type RANTES) was 3.07. In the case of “RANTES mutant pVU17 (additional N-terminal Leucine) (from UniProt P13501 24-91) (ligand)”, the relative antiviral activity (ID90 RANTES/ID90 mutant), MDM, HIV-1BaL (fold compared to wild-type RANTES) is reported as 11, the relative antiviral activity (ID90 RANTES/ID90 mutant), PBMC, HIV-1 6366 (fold compared to wild-type RANTES) is reported as 1.9 and the relative antiviral activity (ID90 RANTES/ID90 mutant), PBMC, HIV-1BaL (fold compared to wild-type RANTES) is reported as 4.6. “RANTES mutant pVU22 (Tyr 14 to Phe) (from UniProt P13501 24-91) (ligand)” gave a relative antiviral activity (ID90 RANTES/ID90 mutant), PBMC, HIV-1 6366 (fold compared to wild-type RANTES) of 2.5 and a relative antiviral activity (ID90 RANTES/ID90 mutant), PBMC, HIV-1BaL (fold compared to wild-type RANTES) of 10. “RANTES mutant pVU24 (Arg 17 to Ala) (from UniProt P13501 24-91) (ligand)” gave a relative antiviral activity (ID90 RANTES/ID90 mutant), PBMC, HIV-1 6366 (fold compared to wild-type RANTES) of 1.3 and a relative antiviral activity (ID90 RANTES/ID90 mutant), PBMC, HIV-1BaL (fold compared to wild-type RANTES) of 1.09. In the case of “RANTES mutant pVU26 (Arg 44 to Glu) (from UniProt P13501 24-91) (ligand)”, the relative antiviral activity (RANTES ID50/mutant ID50), PBMC, HIV-1BaL (fold compared to wild-type RANTES) is reported as 3.16. Work on “RANTES mutant pVU38 (Asp 6 to Arg) (from UniProt P13501 24-91) (ligand)” yielded a relative antiviral activity (ID90 RANTES/ID90 mutant), PBMC, HIV-1 6366 (fold compared to wild-type RANTES) of 0.13 and a relative antiviral activity (ID90 RANTES/ID90 mutant), PBMC, HIV-1BaL (fold compared to wild-type RANTES) of 0.14. In the case of “RANTES mutant pVU43 (Lys 45 to Glu) (from UniProt P13501 24-91) (ligand)”, the relative antiviral activity (RANTES ID50/mutant ID50), PBMC, HIV-1BaL (fold compared to wild-type RANTES) is reported as 1.44. For “wild-type RANTES (from UniProt P13501 24-91) (ligand)”, the ID90, inhibition of HIV-1BaL infection of PBMC (p24 antigen) was 0.096 µg/mL.

Source: patent US7164000
